Measurements from paper PMC4306681.

Assays:
[1] = target: Fc-tagged WT perlecan DII from WT CHO cells (UniProt P98160); assay: radioligand binding; stable WT CHO cell lines expressing Fc or Fc-tagged proteins, binding of [I^125]labeled LDL (supplementary Fig. 3)
[2] = target: Fc-tagged perlecan DI+II from WT CHO cells (UniProt P98160); assay: as above
[3] = target: Fc-tagged perlecan DI from WT CHO cells (UniProt P98160); assay: as above
[4] = target: Fc-tagged WT perlecan DII from WT CHO cells (UniProt P98160); assay: pull-down; Fc-tagged proteins on protein-A agarose incubated with human ApoB-100 (5 μg); 20 mM HEPES pH 6.0, 10 mM NaCl, 1% BSA ('optimal binding condition'), room temperature 1 h; blot with anti-ApoB antibody, quantified from three experiments
[5] = target: Fc-tagged perlecan DI+II from WT CHO cells (UniProt P98160); assay: as above
[6] = target: sialidase C-treated Fc-tagged WT perlecan DII; assay: pull-down; Fc-tagged proteins on protein-A agarose incubated with human LDL (10 μg in Fig. 1E/F with 500 ng protein; 1.5 μg in Fig. 5D); 20 mM HEPES pH 6.0, 10 mM NaCl, 1% BSA, room temperature 1 h; blot with anti-LDL or anti-ApoB antibody
[7] = target: Fc-tagged secreted perlecan DII (sDII), as purified in Fig. 1D; assay: in vitro saturation binding analysis; sDII 10.0 pM with increasing LDL (supplementary Fig. 1); further conditions not shown

human ApoB-100, sequence (P04114 28-4563): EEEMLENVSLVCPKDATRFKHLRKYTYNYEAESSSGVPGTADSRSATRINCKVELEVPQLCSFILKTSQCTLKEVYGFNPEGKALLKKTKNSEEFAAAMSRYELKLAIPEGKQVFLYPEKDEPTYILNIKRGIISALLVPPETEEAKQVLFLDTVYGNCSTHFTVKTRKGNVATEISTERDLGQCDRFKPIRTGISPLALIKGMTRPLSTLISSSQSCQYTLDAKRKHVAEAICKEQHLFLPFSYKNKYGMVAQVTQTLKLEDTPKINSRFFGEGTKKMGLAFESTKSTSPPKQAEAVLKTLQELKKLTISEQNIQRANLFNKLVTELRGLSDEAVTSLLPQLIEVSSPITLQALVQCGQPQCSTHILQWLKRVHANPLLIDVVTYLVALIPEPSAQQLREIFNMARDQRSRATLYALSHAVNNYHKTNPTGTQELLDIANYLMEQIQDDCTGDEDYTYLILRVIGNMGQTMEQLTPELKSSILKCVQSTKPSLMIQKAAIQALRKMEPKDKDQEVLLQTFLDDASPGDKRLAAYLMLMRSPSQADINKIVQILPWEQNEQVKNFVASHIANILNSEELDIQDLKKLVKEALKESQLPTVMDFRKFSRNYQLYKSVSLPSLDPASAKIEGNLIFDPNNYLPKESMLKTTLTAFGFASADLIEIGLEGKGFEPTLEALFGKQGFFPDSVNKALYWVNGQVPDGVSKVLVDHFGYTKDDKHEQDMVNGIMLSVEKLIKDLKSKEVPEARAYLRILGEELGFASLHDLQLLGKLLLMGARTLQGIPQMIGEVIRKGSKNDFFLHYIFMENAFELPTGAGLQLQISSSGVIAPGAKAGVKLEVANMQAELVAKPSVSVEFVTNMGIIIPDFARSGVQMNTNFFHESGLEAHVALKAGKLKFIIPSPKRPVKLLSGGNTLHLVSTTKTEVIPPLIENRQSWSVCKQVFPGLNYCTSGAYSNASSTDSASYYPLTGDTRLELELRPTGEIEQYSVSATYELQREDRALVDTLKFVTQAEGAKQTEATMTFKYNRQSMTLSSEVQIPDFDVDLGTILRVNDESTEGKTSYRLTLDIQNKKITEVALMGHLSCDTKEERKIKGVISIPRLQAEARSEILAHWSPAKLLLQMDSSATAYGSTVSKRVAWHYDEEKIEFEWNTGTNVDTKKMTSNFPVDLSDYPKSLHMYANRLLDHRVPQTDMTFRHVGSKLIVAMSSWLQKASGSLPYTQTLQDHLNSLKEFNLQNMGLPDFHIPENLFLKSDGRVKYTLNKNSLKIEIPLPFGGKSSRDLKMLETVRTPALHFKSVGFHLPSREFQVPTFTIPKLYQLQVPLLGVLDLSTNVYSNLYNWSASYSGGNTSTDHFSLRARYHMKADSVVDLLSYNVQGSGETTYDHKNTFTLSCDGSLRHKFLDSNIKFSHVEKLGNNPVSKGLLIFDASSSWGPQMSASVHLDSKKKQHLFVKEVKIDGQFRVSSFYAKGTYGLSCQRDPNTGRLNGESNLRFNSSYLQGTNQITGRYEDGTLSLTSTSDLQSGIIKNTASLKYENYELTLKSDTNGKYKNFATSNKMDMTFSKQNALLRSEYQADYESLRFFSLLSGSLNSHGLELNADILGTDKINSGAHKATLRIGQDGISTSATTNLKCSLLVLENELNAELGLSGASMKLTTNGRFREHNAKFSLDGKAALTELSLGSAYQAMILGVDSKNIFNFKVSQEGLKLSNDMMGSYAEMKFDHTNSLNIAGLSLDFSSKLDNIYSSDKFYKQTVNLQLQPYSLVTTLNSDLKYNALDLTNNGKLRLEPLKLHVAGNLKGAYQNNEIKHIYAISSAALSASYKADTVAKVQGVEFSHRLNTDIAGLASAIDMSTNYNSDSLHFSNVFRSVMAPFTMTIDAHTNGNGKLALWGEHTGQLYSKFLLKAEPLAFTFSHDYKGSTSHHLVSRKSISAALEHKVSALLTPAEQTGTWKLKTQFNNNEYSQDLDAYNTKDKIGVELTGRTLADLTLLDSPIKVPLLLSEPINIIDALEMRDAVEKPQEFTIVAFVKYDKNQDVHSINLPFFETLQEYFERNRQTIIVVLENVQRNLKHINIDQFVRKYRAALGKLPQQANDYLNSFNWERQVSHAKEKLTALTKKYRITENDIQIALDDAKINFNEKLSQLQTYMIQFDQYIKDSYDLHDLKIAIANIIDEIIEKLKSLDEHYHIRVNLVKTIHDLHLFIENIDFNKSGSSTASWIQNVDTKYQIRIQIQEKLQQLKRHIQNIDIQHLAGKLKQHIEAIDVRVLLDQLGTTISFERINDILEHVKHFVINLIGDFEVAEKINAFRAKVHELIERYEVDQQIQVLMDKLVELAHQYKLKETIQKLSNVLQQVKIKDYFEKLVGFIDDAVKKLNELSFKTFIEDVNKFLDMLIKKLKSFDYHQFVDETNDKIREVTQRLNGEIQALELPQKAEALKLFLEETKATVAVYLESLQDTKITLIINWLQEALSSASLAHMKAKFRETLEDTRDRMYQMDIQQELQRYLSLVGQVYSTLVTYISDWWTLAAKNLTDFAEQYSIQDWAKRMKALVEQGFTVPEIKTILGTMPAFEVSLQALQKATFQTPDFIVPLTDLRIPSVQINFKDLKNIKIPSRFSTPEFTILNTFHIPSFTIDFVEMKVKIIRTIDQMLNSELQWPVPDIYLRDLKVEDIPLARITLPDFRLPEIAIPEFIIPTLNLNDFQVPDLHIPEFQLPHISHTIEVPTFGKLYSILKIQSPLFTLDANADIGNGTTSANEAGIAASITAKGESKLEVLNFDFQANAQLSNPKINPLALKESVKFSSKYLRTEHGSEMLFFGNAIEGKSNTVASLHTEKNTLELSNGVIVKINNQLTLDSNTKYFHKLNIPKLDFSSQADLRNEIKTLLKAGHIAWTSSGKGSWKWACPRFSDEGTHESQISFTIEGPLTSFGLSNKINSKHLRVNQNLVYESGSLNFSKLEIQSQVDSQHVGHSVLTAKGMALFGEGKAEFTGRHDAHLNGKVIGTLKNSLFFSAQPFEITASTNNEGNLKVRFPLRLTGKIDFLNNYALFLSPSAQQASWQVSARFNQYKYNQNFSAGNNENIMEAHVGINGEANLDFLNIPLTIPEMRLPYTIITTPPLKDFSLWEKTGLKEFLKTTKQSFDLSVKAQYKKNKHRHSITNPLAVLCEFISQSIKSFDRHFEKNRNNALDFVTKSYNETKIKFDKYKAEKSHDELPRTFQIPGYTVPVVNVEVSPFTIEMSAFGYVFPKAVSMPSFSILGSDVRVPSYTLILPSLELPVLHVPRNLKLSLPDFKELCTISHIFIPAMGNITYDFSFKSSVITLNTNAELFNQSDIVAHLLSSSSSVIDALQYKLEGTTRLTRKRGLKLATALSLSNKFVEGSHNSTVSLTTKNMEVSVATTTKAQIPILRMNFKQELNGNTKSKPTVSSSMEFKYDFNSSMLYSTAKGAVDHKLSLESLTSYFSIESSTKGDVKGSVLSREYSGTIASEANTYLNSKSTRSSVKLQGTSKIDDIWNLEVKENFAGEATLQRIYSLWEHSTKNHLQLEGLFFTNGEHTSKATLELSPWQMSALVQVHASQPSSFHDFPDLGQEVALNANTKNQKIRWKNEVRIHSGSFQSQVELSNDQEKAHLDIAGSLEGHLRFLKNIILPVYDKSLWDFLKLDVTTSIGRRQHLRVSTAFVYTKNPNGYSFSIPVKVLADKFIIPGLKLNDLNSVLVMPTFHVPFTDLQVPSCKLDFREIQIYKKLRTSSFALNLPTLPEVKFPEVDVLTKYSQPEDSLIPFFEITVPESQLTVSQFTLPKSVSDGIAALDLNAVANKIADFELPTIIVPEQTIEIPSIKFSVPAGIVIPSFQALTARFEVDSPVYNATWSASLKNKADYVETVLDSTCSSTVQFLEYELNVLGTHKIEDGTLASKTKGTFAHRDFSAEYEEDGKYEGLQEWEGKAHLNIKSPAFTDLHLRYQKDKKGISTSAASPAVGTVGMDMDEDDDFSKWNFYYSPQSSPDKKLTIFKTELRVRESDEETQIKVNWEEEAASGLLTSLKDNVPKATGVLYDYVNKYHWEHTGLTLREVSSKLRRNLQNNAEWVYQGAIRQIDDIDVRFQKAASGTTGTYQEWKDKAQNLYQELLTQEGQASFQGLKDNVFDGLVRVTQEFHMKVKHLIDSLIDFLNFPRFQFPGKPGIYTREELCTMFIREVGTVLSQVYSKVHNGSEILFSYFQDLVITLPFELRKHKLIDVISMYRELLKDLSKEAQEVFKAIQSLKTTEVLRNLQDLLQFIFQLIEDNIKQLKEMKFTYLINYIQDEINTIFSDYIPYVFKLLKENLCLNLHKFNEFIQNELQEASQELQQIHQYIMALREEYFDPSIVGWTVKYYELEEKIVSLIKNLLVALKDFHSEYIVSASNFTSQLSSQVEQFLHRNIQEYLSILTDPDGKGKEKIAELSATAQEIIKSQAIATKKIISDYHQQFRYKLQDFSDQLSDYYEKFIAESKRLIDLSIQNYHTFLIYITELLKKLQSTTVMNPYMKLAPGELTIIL

[I^125]labeled LDL (complex) showed a percent increase of [I^125]LDL binding to cells [1] of 31%, a percent increase of [I^125]LDL binding to cells [2] of 43% and a percent increase of [I^125]LDL binding to cells [3] of 26%.

“human ApoB-100 (from UniProt P04114 28-4563) (natural protein)” showed a percent increase of binding over WT DI [4] of 24%, a percent increase of binding over DI alone [5] of 90% and a percent increase of binding over WT DII [5] of 53%.

human LDL (complex) was tested, and the percent reduction of binding against mock-treated WT DII [6] was 50% and the LDL concentration at which binding to sDII (10.0 pM) became saturated [7] was 16.3 pM.
